Experimental data reported in US20240116985A1, “STAPLED PEPTIDES AND METHODS THEREOF” (priority 2020, published 2024).
Starred links: 1 amine or outer side, 2 acyl side, 3 side chain; linkers in the order of their positions; H or OH if unused. Positions of bridges follow the written chain, without caps; N, C: chain ends. Non-standard residues stand in square brackets, D forms with d. Primed or numbered codes have the meaning given here. *: point of attachment. PyrS2″ = (S)-3-amino-1-((pent-4-en-1-yloxy)carbonyl)pyrrolidine-3-carboxylic acid (stapling residue), C=CCCCOC(=O)N1CC[C@@](N[*:1])(C(=O)[*:2])C1; SeN″ = (S)-5-(((allyloxy)carbonyl)(methyl)amino)-2-amino-2-methylpentanoic acid (stapling residue), C=CCOC(=O)N(C)CCC[C@](C)(N[*:1])C(=O)[*:2]; B5(30) = 2-amino-2-(pent-4-en-1-yl)hept-6-enoic acid (2,2-bis(4-pentenyl)glycine, stitching residue), C=CCCCC(CCCC=C)(N[*:1])C(=O)[*:2]; B5(4) = 2,2-bis(4-pentenyl)glycine = 2-amino-2-(pent-4-en-1-yl)hept-6-enoic acid (stitching residue), C=CCCCC(CCCC=C)(N[*:1])C(=O)[*:2]; B5(5) = 2,2-bis(4-pentenyl)glycine, 2-amino-2-(pent-4-en-1-yl)hept-6-enoic acid (stitching residue), C=CCCCC(CCCC=C)(N[*:1])C(=O)[*:2]; TfeGA = (S)-2-amino-3-((carboxymethyl)(2,2,2-trifluoroethyl)amino)propanoic acid, O=C([C@H](CN(CC(=O)[*:3])CC(F)(F)F)N[*:1])[*:2]; (3C)TriAzdLys = (R)-2-amino-6-(4-propyl-1H-1,2,3-triazol-1-yl)hexanoic acid, CCCc1cn(CCCC[C@@H](N[*:1])C(=O)[*:2])nn1; B5(3) = 2,2-bis(4-pentenyl)glycine (stitching residue), C=CCCCC(CCCC=C)(N[*:1])C(=O)[*:2]; B5 = 2-amino-2-(pent-4-en-1-yl)hept-6-enoic acid, C=CCCCC(CCCC=C)(N[*:1])C(=O)[*:2]; Phe(3-CF3) = N[C@@H](Cc1cccc(C(F)(F)F)c1)C(=O)O; Phe(3-COOH) = N[C@@H](Cc1cccc(C(=O)O)c1)C(=O)O; Phe(2-CF3) = N[C@@H](Cc1ccccc1C(F)(F)F)C(=O)O; Phe(2-Cl) = N[C@@H](Cc1ccccc1Cl)C(=O)O; Phe(3-F) = N[C@@H](Cc1cccc(F)c1)C(=O)O; Phe(3-Me) = Cc1cccc(C[C@H](N)C(=O)O)c1; 1Nal = N[C@@H](Cc1cccc2ccccc12)C(=O)O; 2Nal = N[C@@H](Cc1ccc2ccccc2c1)C(=O)O; Ala(cPent) = N[C@@H](CC1CCCC1)C(=O)O; Bta = N[C@@H](Cc1csc2ccccc12)C(=O)O; αAllylPro = C=CC[C@@]1(C(=O)O)CCCN1; tBuAla = CC(C)(C)C[C@H](N)C(=O)O; 2Thi = N[C@@H](Cc1cccs1)C(=O)O; 3Thi = N[C@@H](Cc1ccsc1)C(=O)O; S8 = C=CCCCCCC[C@](C)(N)C(=O)O; Butoxycarbonyl = CCCCOC(=O)*; hSer = N[C@@H](CCO)C(=O)O; Nle = CCCC[C@H](N)C(=O)O

How the values were obtained:
[1] = biological target: full-length beta-Catenin (Uniprot ID P35222) (Homo sapiens (Human)) (UniProt P35222); assay: fluorescence polarization competition; full-length beta-catenin with 5FAM-labeled TCF4 (residues 10-53) probe as competitor
Target sequence in this assay (P35222 whole entry, the tested form may be a part): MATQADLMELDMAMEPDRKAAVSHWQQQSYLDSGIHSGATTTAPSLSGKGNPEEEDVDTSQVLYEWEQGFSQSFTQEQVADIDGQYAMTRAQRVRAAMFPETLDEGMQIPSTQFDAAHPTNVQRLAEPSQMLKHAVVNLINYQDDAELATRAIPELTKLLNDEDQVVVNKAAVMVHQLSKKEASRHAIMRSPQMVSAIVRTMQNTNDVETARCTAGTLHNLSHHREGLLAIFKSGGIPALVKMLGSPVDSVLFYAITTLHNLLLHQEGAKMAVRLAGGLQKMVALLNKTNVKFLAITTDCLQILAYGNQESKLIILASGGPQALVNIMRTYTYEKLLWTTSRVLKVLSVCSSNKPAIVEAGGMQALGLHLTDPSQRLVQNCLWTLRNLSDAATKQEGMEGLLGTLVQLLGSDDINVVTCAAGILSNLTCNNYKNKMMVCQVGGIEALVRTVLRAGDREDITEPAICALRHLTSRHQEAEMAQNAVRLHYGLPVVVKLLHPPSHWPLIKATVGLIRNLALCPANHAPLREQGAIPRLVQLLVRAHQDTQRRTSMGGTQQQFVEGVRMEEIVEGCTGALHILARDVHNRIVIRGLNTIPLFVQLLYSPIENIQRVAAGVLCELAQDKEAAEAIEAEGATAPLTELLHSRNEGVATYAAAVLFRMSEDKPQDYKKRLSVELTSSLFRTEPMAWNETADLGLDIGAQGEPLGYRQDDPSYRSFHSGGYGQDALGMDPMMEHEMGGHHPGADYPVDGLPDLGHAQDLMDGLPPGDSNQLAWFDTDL

[2] = biological target: full-length beta-Catenin (Uniprot ID P35222) (Homo sapiens (Human)) (UniProt P35222); assay: fluorescence polarization competition; 10 nM full-length beta-catenin + 10 nM 5FAM-TCF4(10-53) probe, peptide titrated
Target sequence in this assay (P35222 2-781 limits assumed): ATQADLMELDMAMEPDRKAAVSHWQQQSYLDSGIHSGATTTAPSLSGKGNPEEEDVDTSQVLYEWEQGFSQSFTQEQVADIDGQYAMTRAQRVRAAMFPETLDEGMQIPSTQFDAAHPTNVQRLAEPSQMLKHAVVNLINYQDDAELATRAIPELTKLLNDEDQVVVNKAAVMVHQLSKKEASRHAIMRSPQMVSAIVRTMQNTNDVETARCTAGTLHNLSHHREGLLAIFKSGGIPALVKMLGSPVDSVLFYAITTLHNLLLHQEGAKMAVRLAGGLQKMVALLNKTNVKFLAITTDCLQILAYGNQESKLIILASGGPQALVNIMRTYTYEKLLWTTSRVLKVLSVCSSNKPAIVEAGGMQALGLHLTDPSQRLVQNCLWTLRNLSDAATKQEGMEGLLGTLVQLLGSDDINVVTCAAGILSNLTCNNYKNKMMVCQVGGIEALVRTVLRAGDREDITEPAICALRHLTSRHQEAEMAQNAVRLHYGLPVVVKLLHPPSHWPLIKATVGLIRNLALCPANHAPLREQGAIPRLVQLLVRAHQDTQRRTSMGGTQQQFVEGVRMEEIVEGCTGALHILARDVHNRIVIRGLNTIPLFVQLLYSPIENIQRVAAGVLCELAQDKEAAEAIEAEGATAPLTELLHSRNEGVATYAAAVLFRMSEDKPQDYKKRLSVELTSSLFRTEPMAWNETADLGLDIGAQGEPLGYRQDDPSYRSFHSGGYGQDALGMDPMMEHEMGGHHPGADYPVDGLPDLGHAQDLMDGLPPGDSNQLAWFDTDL

[3] = biological target: full-length beta-Catenin (Uniprot ID P35222) (Homo sapiens (Human)) (UniProt P35222); assay: fluorescence polarization competition; full-length beta-catenin, 5FAM-TCF4(10-53) probe displaced
Target sequence in this assay (P35222 whole entry, the tested form may be a part): as the sequence (P35222 whole entry, the tested form may be a part) above

[4] = biological target: full-length beta-Catenin (Uniprot ID P35222) (Homo sapiens (Human)) (UniProt P35222); assay: fluorescence polarization competition against 5FAM-TCF4(10-53), full-length beta-catenin
Target sequence in this assay (P35222 whole entry, the tested form may be a part): as above

[5] = biological target: full-length beta-Catenin (Uniprot ID P35222) (Homo sapiens (Human)) (UniProt P35222); assay: fluorescence polarization competition; 10 nM full-length beta-catenin + 10 nM 5FAM-TCF4(10-53) probe, peptide titrated 10 uM to 5 nM
Target sequence in this assay (P35222 2-781 limits assumed): as the sequence (P35222 2-781 limits assumed) above

[6] = biological target: full-length beta-Catenin (Uniprot ID P35222) (Homo sapiens (Human)) (UniProt P35222); assay: fluorescence polarization competition; 10 nM full-length beta-catenin, competitor 10 nM 5FAM-TCF4(10-53)
Target sequence in this assay (P35222 whole entry, the tested form may be a part): as the sequence (P35222 whole entry, the tested form may be a part) above

[7] = biological target: full-length beta-Catenin (Uniprot ID P35222) (Homo sapiens (Human)) (UniProt P35222); assay: fluorescence polarization competition; full-length beta-catenin + 5FAM-TCF4(10-53) probe
Target sequence in this assay (P35222 whole entry, the tested form may be a part): as above

[8] = biological target: full-length beta-Catenin (Uniprot ID P35222) (Homo sapiens (Human)) (UniProt P35222); assay: fluorescence polarization competition against 5FAM-TCF4(10-53) on full-length beta-catenin
Target sequence in this assay (P35222 whole entry, the tested form may be a part): as above

Binder	IC50 [1] [nM]	IC50 [3] [nM]	other results
Ac-[αAllylPro]DA[B5(4)]D[2Thi]AAFV[S8][Phe(3-F)][Bta]Q-NH2 (staple 1-4, 4-11) [I-402]	5000		EC50 [2]: 5000 nM
Ac-[αAllylPro]D[tBuAla][B5(5)]QDAAFN[PyrS2″][3Thi][Bta]Q-NH2 (staple 1-4, 4-11) [Ac-PL3-Asp-Npg-B5-Gln-Asp-Ala-Ala-Phe-Asn-PyrS2-3Thi-BztA-Gln-NH2]		56	
Ac-[αAllylPro]S[tBuAla][B5(5)]DDAAFN[PyrS2″][3Thi][Bta]Q-NH2 (staple 1-4, 4-11) [Ac-PL3-Ser-Npg-B5-Asp-Asp-Ala-Ala-Phe-Asn-PyrS2-3Thi-BztA-Gln-NH2]		511	
Ac-[αAllylPro]D[tBuAla][B5(3)]NDAAFL[PyrS2″][3Thi][Bta]Q-NH2 (staple 1-4, 4-11) [Ac-PL3-Asp-Npg-B5-Asn-Asp-Ala-Ala-Phe-Leu-PyrS2-3Thi-BztA-Gln-NH2]		40	
Ac-[αAllylPro]Q[tBuAla][B5(5)]DDAAFN[PyrS2″][3Thi][Bta]Q-NH2 (staple 1-4, 4-11) [Ac-PL3-Gln-Npg-B5-Asp-Asp-Ala-Ala-Phe-Asn-PyrS2-3Thi-BztA-Gln-NH2]		389	
Butoxycarbonyl-[αAllylPro]D[tBuAla][B5(4)]D[Phe(3-COOH)]AAFL[PyrS2″][Phe(2-Cl)][Bta]A-NH2 (staple 1-4, 4-11) [I-2304]			IC50 [4]: 511 nM
Ac-[αAllylPro]D[tBuAla][B5(5)]SDAAFL[PyrS2″][3Thi][Bta]Q-NH2 (staple 1-4, 4-11) [Ac-PL3-Asp-Npg-B5-Ser-Asp-Ala-Ala-Phe-Leu-PyrS2-3Thi-BztA-Gln-NH2]		479	
Ac-[αAllylPro][hSer][tBuAla][B5(5)]DQAAFL[PyrS2″]F[Bta]Q-NH2 (staple 1-4, 4-11) [I-2443]			IC50 [5]: 6670 nM
Ac-[αAllylPro]D[Nle][B5(3)]DEAAFA[S8]F[Bta]Q-NH2 (staple 1-4, 4-11) [I-411]	189		EC50 [2]: 189 nM
Ac-[αAllylPro]D[tBuAla][B5(5)]SDAAFN[PyrS2″][3Thi][Bta]Q-NH2 (staple 1-4, 4-11) [Ac-PL3-Asp-Npg-B5-Ser-Asp-Ala-Ala-Phe-Asn-PyrS2-3Thi-BztA-Gln-NH2]		349	
Ac-[αAllylPro]DA[B5(3)]D[TfeGA]AA[Phe(3-Me)]Q[SeN″][Phe(3-F)][Bta]Q-NH2 (staple 1-4, 4-11) [I-405]	3820		EC50 [2]: 3820 nM
Ac-[αAllylPro]N[tBuAla][B5(3)]DDAAFL[PyrS2″][3Thi][Bta]Q-NH2 (staple 1-4, 4-11) [Ac-PL3-Asn-Npg-B5-Asp-Asp-Ala-Ala-Phe-Leu-PyrS2-3Thi-BztA-Gln-NH2]		14	
Ac-[αAllylPro]DI[B5(3)]DEAAFQ[S8]F[Bta]-NH2 (staple 1-4, 4-11; also: staple isomer composition, earlier eluting HPLC peak) [I-408]	120		EC50 [2]: 120 nM
Ac-[αAllylPro]DA[B5(4)]D[TfeGA]AA[Phe(3-Me)]Q[S8][Phe(3-F)][Bta]Q-NH2 (staple 1-4, 4-11) [I-404]	1850		EC50 [2]: 1850 nM
Ac-[αAllylPro]DI[B5(3)]DEAAFQ[S8]F[Bta]-NH2 (staple 1-4, 4-11; also: staple isomer composition, later eluting HPLC peak) [I-409]	70		EC50 [2]: 70 nM
Ac-[αAllylPro]DA[B5]DEAAFV[S8][Ala(cPent)][Bta]Q-NH2 (staple 1-4, 4-11) [I-393]	1950		EC50 [6]: 1950 nM

Binder	IC50 [1] [nM]	IC50 [3] [nM]	other results
Ac-[αAllylPro]D[tBuAla][B5(30)]D[Phe(3-COOH)]AAFL[PyrS2″][Phe(2-CF3)][Bta]S[(3C)TriAzdLys]-NH2 (staple 1-4, 4-11; not fully specified; printed as Ac-PL3-Asp-Npg-B5-Asp-3COOHF-Ala-Ala-Phe-Leu-PyrS2-2F3MeF-BztA-Ser-[3C]TriAzdLys-NH2) [I-2444]			IC50 [5]: 121 nM
Ac-[αAllylPro]D[tBuAla][B5(3)]DTAAFT[PyrS2″]F[1Nal]S-NH2 (staple 1-4, 4-11) [I-1272]			EC50 [7]: 331 nM; IC50 [8]: 331 nM
Ac-[αAllylPro]N[tBuAla][B5(5)]DHAAFL[PyrS2″]F[Bta]Q-NH2 (staple 1-4, 4-11) [I-2442]			IC50 [5]: 282 nM
Ac-[αAllylPro]DA[B5(4)]DEAAFV[S8][Phe(3-Me)][Bta]Q-NH2 (staple 1-4, 4-11) [I-395]	5000		EC50 [6]: 5000 nM
Ac-[αAllylPro]D[tBuAla][B5(5)][hSer]DAAFN[PyrS2″][3Thi][Bta]Q-NH2 (staple 1-4, 4-11) [Ac-PL3-Asp-Npg-B5-Hse-Asp-Ala-Ala-Phe-Asn-PyrS2-3Thi-BztA-Gln-NH2]		116	
Ac-[αAllylPro]D[tBuAla][B5(3)]DTAAFT[PyrS2″][2Nal][Bta]S-NH2 (staple 1-4, 4-11) [I-1270]			EC50 [7]: 3700 nM; IC50 [8]: 3700 nM
Ac-[αAllylPro]DA[B5(4)]DEAA[2Thi]Q[S8][Phe(3-F)][Bta]Q-NH2 (staple 1-4, 4-11) [I-401]	134		EC50 [2]: 134 nM
Ac-[αAllylPro]S[tBuAla][B5(5)]DDAAFL[PyrS2″][3Thi][Bta]Q-NH2 (staple 1-4, 4-11) [Ac-PL3-Ser-Npg-B5-Asp-Asp-Ala-Ala-Phe-Leu-PyrS2-3Thi-BztA-Gln-NH2]		550	
Ac-[αAllylPro]D[tBuAla][B5(5)]LDAAFN[PyrS2″][3Thi][Bta]Q-NH2 (staple 1-4, 4-11) [Ac-PL3-Asp-Npg-B5-Leu-Asp-Ala-Ala-Phe-Asn-PyrS2-3Thi-BztA-Gln-NH2]		8660	
Ac-[αAllylPro]D[tBuAla][B5(5)]QDAAFL[PyrS2″][3Thi][Bta]Q-NH2 (staple 1-4, 4-11) [Ac-PL3-Asp-Npg-B5-Gln-Asp-Ala-Ala-Phe-Leu-PyrS2-3Thi-BztA-Gln-NH2]		115	
Ac-[αAllylPro]D[tBuAla][B5(3)]DTAAFT[PyrS2″][Phe(3-CF3)][Bta]S-NH2 (staple 1-4, 4-11) [I-1271]			EC50 [7]: 682 nM; IC50 [8]: 682 nM
Ac-[αAllylPro]Q[tBuAla][B5(5)]DDAAFL[PyrS2″][3Thi][Bta]Q-NH2 (staple 1-4, 4-11) [Ac-PL3-Gln-Npg-B5-Asp-Asp-Ala-Ala-Phe-Leu-PyrS2-3Thi-BztA-Gln-NH2]		305	
Ac-[αAllylPro]D[tBuAla][B5(3)]NDAAFN[PyrS2″][3Thi][Bta]Q-NH2 (staple 1-4, 4-11) [Ac-PL3-Asp-Npg-B5-Asn-Asp-Ala-Ala-Phe-Asn-PyrS2-3Thi-BztA-Gln-NH2]		32	
Ac-[αAllylPro]DA[B5]DEAA[Ala(cPent)]V[S8]F[Bta]Q-NH2 (staple 1-4, 4-11) [I-392]	5000		EC50 [6]: 5000 nM
Ac-[αAllylPro]D[tBuAla][B5(5)][hSer]DAAFL[PyrS2″][3Thi][Bta]Q-NH2 (staple 1-4, 4-11) [Ac-PL3-Asp-Npg-B5-Hse-Asp-Ala-Ala-Phe-Leu-PyrS2-3Thi-BztA-Gln-NH2]		216	
